From patent US20100035825

Assays:
[1] = biological target: T1, Ac-KE^217VD-CHO
T1 chain: KEVD

[2] = biological target: T2, Ac-KKPD^105-CHO
T2 chain: KKPD

B1: purified recombinant procaspase 8 (human, Alexis Biochemicals) (protein)
chain: SESQTLDKVYQMKSKPRGYCLIINNHNFAKAREKVPKLHSIRDRNGTHLDAGALTTTFEELHFEIKPHDDCTVEQIYEILKIYQLMDHSNMDCFICCILSHGDKGIIYGTDGQEAPIYELTSQFTGLKCPSLAGKPKVFFIQACQGDNYQKGIPVETDSEEQPYLEMDLSSPQTRYIPDEADFLLGMATVNNCVSYRNPAEGTWYIQSLCQSLRERCPRGDDILTILTEVNYEVSNKDDKKNMGKQMPQPTFTLRKKLVFPSD
With B1 the “in vitro self-activation of caspase 8 (colorimetric substrate, tetrapeptides at 200 µM)” value [1] was “inhibited” and the “in vitro self-activation of caspase 8 (colorimetric substrate, tetrapeptides at 200 µM)” value [2] was “inhibited”.
